Data reported in patent US20250326842A1.
Changes are numbered by the printed parent chain. Read-outs that look alike come from different tables or passages of the source.

B1: BGA12 (antibody, V domains shown)
VH: QVQLQQSGPEVVRPGVSVKISCKGSGYTFTDYAMHWVKQSHGKSLEWIGVVLTHNDNTNYNQKFKAKATMTVDRSSSTAYMELARLTSEDSAIYYCAREVYYDFDDGNYFPMDYWGQGTSVTVSS
VL: DIVMSQSPSSLAVSVGEKVTMSCKSSQSLLYSDNQKNYLAWYQQKPGQSPKLLIYWASTRESGVPVRFTGSGSGTDFTLTISSVKAEDLAVYYCQQYYSYHTFGGGTKLEIK
B2: BGA861 (antibody, V domains shown)
VH: EVQLVESGGGLVKPGGSLRLSCAASGFTFSSYGISWVRQAPGKGLEWVSEISSGGTYTYYPDTVTGRFTISRDNAKNTLYLQMSSLRAEDTAVYYCARGDPFGYWGQGTLVTVSS
VL: DIQMTQSPSSLSASVGDRVTITCKASQDVMTAVAWYQQKPGKAPKLLIYSTSYRFTGVPSRFSGSGSGTDFTLTISSLQPEDFATYYCQQHYSTPRTFGGGTKVEIK
B3: BGA862 (antibody, V domains shown)
VH: B2 VH with I34L
VL: B2 VL
B4: BGA38 (antibody, V domains shown)
VH: EVQLQESGAEHVMPGASVKMSCKAAGYTFTDYWMYWVKQRPGQGLEWIGTIDTSDHKTSYNQKFRGKATLTVDESSSTAYMQLSSLTSEDSAVYYCARDFIITVNYPVVDYWGQGTSVTVSS
VL: QNVLTQSPAIMSASPGEKVTITCSAGSSVNYMHWFQQKPGTSPKLWIYSTSNLASGVPARFSGSGSGTSYSLTISRMEAEDAATYYCQQRSSLPFTFGSGTKLEIK
B5: BGA381 (antibody, V domains shown)
VH: EVQLVQSGAEVKKPGASVKVSCKASGYTFTDYWIYWVRQAPGQGLEWMGTIDTSDHKTSYNQKFRGRVTMTRDTSTSTVYMELSSLRSEDTAVYYCARDFIITVNYPVVDYWGQGTLVTVSS
VL: QIVLTQSPATLSLSPGERATLSCSAGSSVNYMHWFQQKPGQAPRLLIYSTSNLASGVPARFSGSGSGTDYTLTISSLEPEDFAVYYCQQRSSLPFTFGQGTKLEIK
B6: BGA382 (antibody, V domains shown)
VH: B5 VH
VL: B5 VL with I2N, M32L
B7: BGA383 (antibody, V domains shown)
VH: B5 VH with H56A
VL: B5 VL
B8: BGA50 (antibody, V domains shown)
VH: EVQLQQSGPEPVKPGASVKISCKASGYSFTGYFLNWVKQSHGKSLEWIGRISPYNGDTFYNQKFKGKATLTVDKSSSTAHMELLSLTSEDSAVYYCGRSGSFTLFYAMDYWGQGTSVTVSS
VL: DIVMSQSPSSLAVSVGENITMTCKSSQSLFHSGNQKNYLAWYQQKPGQSPKLLIYWASTRESGVPDRFTGSGSETDFTLTISSVKAEDLAVYFCQQYYSYPITFGAGTKLELK
B9: BGA501 (antibody, V domains shown)
VH: QVQLVQSGAEVKKPGASVKVSCKASGYSFTGYFLNWVRQAPGQGLEWIGRISPYQGDTFYNQKFKGRVTMTTDKSTSTAYMELRSLRSDDTAVYYCGRSGSFTLFYAIDYWGQGTLVTVSS
VL: DIVMTQSPSSLAVSLGERATINCKSSQSLFHSGNQKNYLAWYQQKPGQSPKLLIYWASTRESGVPDRFSGSGSGTDFTLTISSLQAEDVAVYYCQQYYSYPITFGQGTKLEIK
B10: BGA503 (antibody, V domains shown)
VH: B9 VH with T72V, I108L
VL: B9 VL
B11: BGA502 (antibody, V domains shown)
VH: B9 VH with I108L
VL: B9 VL
B12: BGA86 (antibody, human IgG1, V domains shown)
VH: EVQLQESGGGSVKPGGSLQLSCAASGFTFSSYGMSWIRQSPEKKLEWVAEISSGGTYTYYPDTVTGRFTISRDNAKNTLYLEMSSLRSEDTAMYYCARGDPFGYWGQGTLVTVSA
VL: DVVMTQSHKFVSTSVGGRVSITCKASQDVMTAVAWYQQKPGQSPKLLIYSTSYRFTGVPDRFTGSGSGTDFTLTINGVQAEDLAVYSCQQHYSTPRTFGGGTKLEIK

Key:
[1] = molecular target: Cyno PVRIG recombinant protein (cynomolgus monkey); assay: ELISA, chimeric antibody on recombinant cyno PVRIG
[2] = molecular target: Cyno PVRIG recombinant protein (cynomolgus monkey); assay: SPR, antibody captured via anti-human Fc, cyno PVRIG analyte
[3] = molecular target: Cyno PVRIG recombinant protein (cynomolgus monkey); assay: as above; remark: listed apart in the source

Cyno PVRIG recombinant protein (cynomolgus monkey), sequence (Q6DKI7 other isoform, or with tags, fused parts or gaps limits assumed): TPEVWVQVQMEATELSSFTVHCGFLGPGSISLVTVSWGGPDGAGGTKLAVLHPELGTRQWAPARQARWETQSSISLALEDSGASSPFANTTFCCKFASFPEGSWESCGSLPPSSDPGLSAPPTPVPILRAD

Binder | EC50 [1] | Kd [2] | koff [2] | kon [2] | Kd [3] | koff [3] | kon [3]
B1 | 39 pM | 6310 pM | 0.000354 s⁻¹ | 56100 M⁻¹ s⁻¹ | – | – | –
B2 | – | – | – | – | 1010 pM | 0.00221 s⁻¹ | 2.18e+06 M⁻¹ s⁻¹
B3 | – | – | – | – | 2160 pM | 0.00483 s⁻¹ | 2.23e+06 M⁻¹ s⁻¹
B4 | 222 pM | 109 pM | 0.000157 s⁻¹ | 1.44e+06 M⁻¹ s⁻¹ | 50.7 pM | 0.00021 s⁻¹ | 4.15e+06 M⁻¹ s⁻¹
B5 | – | – | – | – | 73.8 pM | 0.000367 s⁻¹ | 4.98e+06 M⁻¹ s⁻¹
B6 | – | – | – | – | 51.8 pM | 0.000243 s⁻¹ | 4.7e+06 M⁻¹ s⁻¹
B7 | – | – | – | – | 65.8 pM | 0.000345 s⁻¹ | 5.25e+06 M⁻¹ s⁻¹
B8 | 27.3 pM | 730 pM | 0.00588 s⁻¹ | 8.05e+06 M⁻¹ s⁻¹ | 347 pM | 0.0032 s⁻¹ | 9.21e+06 M⁻¹ s⁻¹
B9 | – | – | – | – | 426 pM | 0.00267 s⁻¹ | 6.27e+06 M⁻¹ s⁻¹
B10 | – | – | – | – | 396 pM | 0.00294 s⁻¹ | 7.44e+06 M⁻¹ s⁻¹
B11 | – | – | – | – | 433 pM | 0.00266 s⁻¹ | 6.16e+06 M⁻¹ s⁻¹
B12 | 44.9 pM | 674 pM | 0.00133 s⁻¹ | 1.97e+06 M⁻¹ s⁻¹ | 552 pM | 0.0017 s⁻¹ | 3.08e+06 M⁻¹ s⁻¹
